The target in this assay is MICA antigen of Table 2 (purified 6×His-MICA*08 or 6×His-MICA*04) (UniProt Q29983). The experiment in a line: BLI (Octet Red96), mAb captured on anti-mouse IgG Fc biosensors, His-tagged MICA in solution, 1:1 model. In general terms: Biolayer interferometry detects binding as a change in optical thickness at a sensor tip.

B1: 16F10.C12 (antibody, V domains shown)
VH: EVQLQESGPGLVAPSQSLSITCTVSGFSLTAFGVNWVRQPPGKGLEWLGMIWGDGNTDYNSTLRSRLSISKDNSKSQVFLKLNSLQTDDTARYFCARETYYGNYAGLGYWGQGTLVTVSA
VL: QIVLTQSPAIMSASIGERVTMTCTASSSVSSNYLHWYQQKPRSSPKLWIYTTSNLASGVPTRFSGSGSGTSYSLTISSMEAEDAATYYCHQFHRSPFTFGSGTKLEIK
Usually Kd stands for the equilibrium constant for the complex coming apart. Low readings indicate tighter binding, high ones weaker binding. As usually defined, the koff is the rate constant with which the complex falls apart. Read a low koff as slow dissociation. In general, kon refers to the second-order rate constant of association. Regarding B1, the Kd turned out to be 6.45 nM, the off-rate constant (koff) came out at 0.000548 s⁻¹ and the kon is 93300 M⁻¹ s⁻¹.

B2: 3F9.E4 (antibody, V domains shown)
VH: EVQLQESGEGLVKPGGSLKLSCAASGFTFSNYAMSWVRQTPEKRLEWVAYISPGGDYIYYADTVKGRFTISRDNARNTLYLQMSSLKSEDTAMYYCTTDRRHYGSYAMDYWGQGISVTVSS
VL: DIVMTQAAPSVPVTPGESVSISCRSSKSLLHSNGNTYLYWFLQRPGQSPQLLIYRMSNLASGVPDRFSGSGSGTAFTLRISRVEAEDVGVYYCMQHLEYPFTFGSGTKLEIK
Turning to B2, the dissociation constant (Kd) came to 1.18 nM, the koff turned out to be 0.000421 s⁻¹ and the kon was 383000 M⁻¹ s⁻¹.

For the origin of these results see patent US20210253711A1.
